Results from patent US20040102606A1, “Histone H2A -derived peptides useful in gene delivery” (priority 2003, published 2004).

Test system: syngeneic mouse model of neuroblastoma
Assay: Vaccination with histone H2A-transfected NXS2 cells, syngeneic mouse model of neuroblastoma
Type: in vivo
Conditions: subcutaneous immunization, histone H2A transient transfection; challenge with wild type tumor cells
From the text: The present invention also contemplates use of the H2A-derived peptides to facilitate gene delivery in vivo. This embodiment is based on the successful subcutaneous immunization in a novel syngeneic mouse model of neuroblastoma with a single chain IL-12 fusion protein that was mediated by histone H2A transient transfection.
For this approach with intact histone H2A and also extendable to the peptides of this invention, mouse IL-2 and scIL-12 were cloned into the expression vector pcDNA3.1 (Invitrogen, Carlsbad, Calif.) as previously described (Lode et al., Proc. Natl. Acad. Sci., USA, 95:2475-2480, 1998). […] Supercoiled DNA was quantitated on 0.9% agarose gels using Stratagene's Eagle Eye. […] production was quantified on a 24 hour basis in cell culture supernatants using an ELISA assay kit (Biosource, Camarillo, Calif.) and compared with standard preparations of these cytokines. […]
NXS2 cells were tested routinely for the absence of mycoplasma contamination (Gen Probe® Mycoplasma Rapid Detection System, Fisher Scientific, Pittsburgh, Pa.). […] Cell viability was determined using trypan blue staining (Life Technologies, Gaithersburg, Md.), and the number of viable cells per experimental condition were determined. […]

B1: IL-2: mouse IL-2 expressed from pcDNA3.1 in transfected NXS2 cells (protein, UniProt P04351 21-169, looked up)
Interleukin-2: APTSSSTSSSTAEAQQQQQQQQQQQQHLEQLLMDLQELLSRMENYRNLKLPRMLTFKFYLPKQATELKDLQCLEDELGPLRHVLDLTQSKSFQLEDAENFISNIRVTVVKLKGSDNTFECQFDDESATVVDFLRRWIAFCQSIISTSPQ
tumor immunity: no tumor immunity
